Results: US20250066456A1 (NOVAVAX, published 2025)
Where two headings read alike, the source gives them in different places.

Key:
[1] = molecular target: BV2540 (recombinant CoV S glycoprotein, BA.5) (SARS-CoV-2, UniProt P0DTC2 14-1273); test: hACE2 receptor inhibition ELISA on coated rS; competitor hACE2-His
[2] = molecular target: T1, BV2541 (recombinant CoV S glycoprotein, BA.4) (SARS-CoV-2, UniProt P0DTC2 14-1273); test: as above
[3] = molecular target: BV2562 (recombinant CoV S glycoprotein, BA.4.6) (SARS-CoV-2, UniProt P0DTC2 14-1273); test: as above
[4] = molecular target: BV2509 (recombinant CoV S glycoprotein, BA.1) (SARS-CoV-2, UniProt P0DTC2 14-1273); test: as above
[5] = molecular target: BV2542 (recombinant CoV S glycoprotein, BA.2.12.1) (SARS-CoV-2, UniProt P0DTC2 14-1273); test: as above
[6] = molecular target: BV2523 (recombinant CoV S glycoprotein, BA.2) (SARS-CoV-2, UniProt P0DTC2 14-1273); test: as above
[7] = molecular target: BV2589 (recombinant CoV S glycoprotein, BQ.1.1) (SARS-CoV-2, UniProt P0DTC2 14-1273); test: as above
[8] = molecular target: BV2561 (recombinant CoV S glycoprotein, BA.2.75) (SARS-CoV-2, UniProt P0DTC2 14-1273); test: as above
[9] = molecular target: T2, BV2425 (recombinant CoV S glycoprotein, Alpha) (SARS-CoV-2, UniProt P0DTC2 14-1273); test: BLI, antibody on anti-mouse Fc biosensor, rS analyte
[10] = molecular target: T3, BV2465 (recombinant CoV S glycoprotein, Delta) (SARS-CoV-2, UniProt P0DTC2 14-1273); test: as above
[11] = molecular target: T4, BV2443 (recombinant CoV S glycoprotein, Gamma) (SARS-CoV-2, UniProt P0DTC2 14-1273); test: as above
[12] = molecular target: T5, BV2373 (recombinant CoV S glycoprotein, Prototype) (SARS-CoV-2, UniProt P0DTC2 14-1273); test: as above
[13] = molecular target: T2, BV2425 (recombinant CoV S glycoprotein, …); test: ELISA, plate coated with rS, serial dilution of the mAb, anti-mouse HRP, A450
[14] = molecular target: T3, BV2465 (recombinant CoV S glycoprotein, …); test: as above
[15] = molecular target: T4, BV2443 (recombinant CoV S glycoprotein, …); test: as above
[16] = molecular target: BV2438 (recombinant CoV S glycoprotein, Beta) (SARS-CoV-2, UniProt P0DTC2 14-1273); test: as above
[17] = molecular target: Delta Plus CoV S glycoprotein (recombinant) (Severe acute respiratory syndrome …, UniProt P0DTC2 14-1273)
[18] = molecular target: T1, BV2541 (recombinant CoV S glycoprotein, …); test: hACE2 receptor inhibition ELISA on coated rS; competitor hACE2-His; remark: listed apart in the source
[19] = molecular target: T3, BV2465 (recombinant CoV S glycoprotein, …); test: as above
[20] = molecular target: T5, BV2373 (recombinant CoV S glycoprotein, …); test: as above
[21] = molecular target: T1, BV2541 (recombinant CoV S glycoprotein, …); test: ELISA on coated rS

B1: 239.12 (antibody, V domains shown)
VH: EVKLEESGPVLVKPSQSLSLTCTVTGYSITSDYAWNWIRQFPGNKLEWMGYISNSAGTSYNPSLKSRISITRDTSKNQFFLQLNSVTTEDTATYYCASGGWSSYYAMDYWGQGTSVTVSS
VL: DIQMTQSPASLSASVGETVTITCGASENIYGALNWYQRKQGKSPQLLIYGATNLADGMSSRFSGSGSGRQYSLKISSLHPDDVATYYCQNVLSTPYTFGGGTKLEIKR
IC50 [1]: > 5 µg/mL | IC50 [2]: > 3 µg/mL | IC50 [3]: > 5 µg/mL | IC50 [4]: > 3 µg/mL | IC50 [5]: > 3 µg/mL | IC50 [6]: > 3 µg/mL | IC50 [7]: > 3 µg/mL | IC50 [8]: > 5 µg/mL | Kd [9]: 2.26 pM | koff [9]: 1.62e-07 s⁻¹ | kon [9]: 72800 M⁻¹ s⁻¹ | Kd [10]: 3.45 pM | Kd [11]: 4.31 pM | koff [11]: 1.25e-07 s⁻¹ | kon [11]: 29400 M⁻¹ s⁻¹ | Kd [12]: 3.81 pM | koff [12]: 1.79e-07 s⁻¹ | kon [12]: 52900 M⁻¹ s⁻¹ | EC50 [13]: ~5 µg/mL | EC50 [14]: 0.025 µg/mL | EC50 [15]: ~5 µg/mL | EC50 [16]: > 5 µg/mL | EC50 [17]: 0.0199 µg/mL

B2: 199.9 (antibody, V domains shown)
VH: LVQLQQPGAELVKPGASVKLSCKASGYTFTSYFMYWVRQRPGQGLEWIGEINPSNGGNDFNEKFKSKATLTVDKSSSTAYMQLSSLTSEDSAVYYCTRSGDYGYDGFAYWGQGTLVTVSA
VL: NIVLTQSPASLAVSLGQRATISCRASESVDTYGNSFMHWYQQKPGQPPKLLIYLASNLESGVPARFSGSGSRTDFTLTIDPVEADDAATYYCQQNNEDPLTFGAGTKLELK
IC50 [18]: 0.038 µg/mL | IC50 [19]: > 3 µg/mL | IC50 [20]: > 3 µg/mL | EC50 [21]: 0.016 µg/mL
